For assay [1], the target named is T1, LRP6 (human; form used in the assay not stated) (human, UniProt O75581 20-1253, limits assumed).
T1 construct: probably an E3-E4 fragment for SPR
T1 sequence: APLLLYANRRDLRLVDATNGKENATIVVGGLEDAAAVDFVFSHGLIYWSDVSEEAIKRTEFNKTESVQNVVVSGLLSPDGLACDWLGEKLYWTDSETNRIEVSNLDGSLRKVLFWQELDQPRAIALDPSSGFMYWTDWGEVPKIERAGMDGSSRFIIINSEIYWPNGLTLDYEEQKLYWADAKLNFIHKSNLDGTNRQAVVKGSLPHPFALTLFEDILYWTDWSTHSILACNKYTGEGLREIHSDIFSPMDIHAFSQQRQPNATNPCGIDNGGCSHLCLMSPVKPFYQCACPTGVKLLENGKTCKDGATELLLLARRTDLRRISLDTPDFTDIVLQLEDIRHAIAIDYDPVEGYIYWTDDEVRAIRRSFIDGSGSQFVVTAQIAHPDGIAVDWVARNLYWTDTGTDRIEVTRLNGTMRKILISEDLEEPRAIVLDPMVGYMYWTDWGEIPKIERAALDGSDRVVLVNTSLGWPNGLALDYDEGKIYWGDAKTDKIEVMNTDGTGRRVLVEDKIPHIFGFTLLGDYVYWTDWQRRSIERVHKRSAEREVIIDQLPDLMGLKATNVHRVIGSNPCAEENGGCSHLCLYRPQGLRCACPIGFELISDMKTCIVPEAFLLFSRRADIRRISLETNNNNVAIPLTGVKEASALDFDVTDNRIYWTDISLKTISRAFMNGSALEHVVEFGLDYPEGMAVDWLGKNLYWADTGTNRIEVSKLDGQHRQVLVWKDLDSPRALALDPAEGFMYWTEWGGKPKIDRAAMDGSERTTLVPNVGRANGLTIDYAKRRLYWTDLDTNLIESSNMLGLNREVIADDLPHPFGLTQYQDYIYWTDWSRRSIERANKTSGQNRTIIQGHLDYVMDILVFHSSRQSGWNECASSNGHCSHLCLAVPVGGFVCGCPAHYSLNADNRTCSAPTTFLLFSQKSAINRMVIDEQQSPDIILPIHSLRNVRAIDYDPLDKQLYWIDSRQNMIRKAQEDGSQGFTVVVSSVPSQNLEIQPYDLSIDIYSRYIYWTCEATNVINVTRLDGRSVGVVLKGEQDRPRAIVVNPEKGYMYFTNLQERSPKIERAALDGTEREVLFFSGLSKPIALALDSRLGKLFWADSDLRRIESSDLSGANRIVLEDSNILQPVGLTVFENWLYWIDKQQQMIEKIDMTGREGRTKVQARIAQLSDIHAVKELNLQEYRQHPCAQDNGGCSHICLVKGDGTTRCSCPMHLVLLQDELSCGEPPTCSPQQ
Nature of the assay: SPR; LRP6 construct not stated; SPR. On the technique in general: Surface plasmon resonance follows binding to a sensor surface in real time, without labels.

The target of assay [2] is T2, LRP6.E3-E4-Fc (human).
T2 construct: also called LRP6.E3-4-Fc
T2 sequence (chain, as listed by the source limits assumed): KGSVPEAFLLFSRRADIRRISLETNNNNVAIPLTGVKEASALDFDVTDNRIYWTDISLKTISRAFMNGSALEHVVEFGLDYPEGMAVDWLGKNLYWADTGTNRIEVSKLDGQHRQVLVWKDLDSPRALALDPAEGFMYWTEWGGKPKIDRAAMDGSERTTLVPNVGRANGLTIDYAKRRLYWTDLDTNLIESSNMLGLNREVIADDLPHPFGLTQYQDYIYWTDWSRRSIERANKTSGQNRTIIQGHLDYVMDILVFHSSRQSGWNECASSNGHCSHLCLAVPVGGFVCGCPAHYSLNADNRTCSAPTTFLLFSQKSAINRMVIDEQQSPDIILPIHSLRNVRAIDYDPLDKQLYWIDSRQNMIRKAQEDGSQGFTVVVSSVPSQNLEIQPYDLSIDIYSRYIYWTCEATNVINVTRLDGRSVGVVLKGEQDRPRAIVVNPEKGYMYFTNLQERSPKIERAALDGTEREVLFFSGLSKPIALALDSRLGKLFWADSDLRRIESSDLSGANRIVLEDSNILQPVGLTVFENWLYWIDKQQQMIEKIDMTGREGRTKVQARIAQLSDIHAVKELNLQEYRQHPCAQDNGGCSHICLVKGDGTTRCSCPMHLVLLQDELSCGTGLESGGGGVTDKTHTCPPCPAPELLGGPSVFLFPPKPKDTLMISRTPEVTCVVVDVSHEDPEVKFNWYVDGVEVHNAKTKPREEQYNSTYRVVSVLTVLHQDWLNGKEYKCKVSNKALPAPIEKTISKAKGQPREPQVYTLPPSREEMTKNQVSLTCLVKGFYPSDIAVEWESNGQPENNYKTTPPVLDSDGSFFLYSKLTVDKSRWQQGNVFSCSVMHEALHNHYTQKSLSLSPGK
Description: ELISA. A general note: In an ELISA, binding on a coated surface is turned into a signal by an enzyme label.

The target in assay [3] is LRP6.E1-E2-Fc (human). Nature of the assay: ELISA.
LRP6.E1-E2-Fc (human), sequence (chain, as listed by the source limits assumed): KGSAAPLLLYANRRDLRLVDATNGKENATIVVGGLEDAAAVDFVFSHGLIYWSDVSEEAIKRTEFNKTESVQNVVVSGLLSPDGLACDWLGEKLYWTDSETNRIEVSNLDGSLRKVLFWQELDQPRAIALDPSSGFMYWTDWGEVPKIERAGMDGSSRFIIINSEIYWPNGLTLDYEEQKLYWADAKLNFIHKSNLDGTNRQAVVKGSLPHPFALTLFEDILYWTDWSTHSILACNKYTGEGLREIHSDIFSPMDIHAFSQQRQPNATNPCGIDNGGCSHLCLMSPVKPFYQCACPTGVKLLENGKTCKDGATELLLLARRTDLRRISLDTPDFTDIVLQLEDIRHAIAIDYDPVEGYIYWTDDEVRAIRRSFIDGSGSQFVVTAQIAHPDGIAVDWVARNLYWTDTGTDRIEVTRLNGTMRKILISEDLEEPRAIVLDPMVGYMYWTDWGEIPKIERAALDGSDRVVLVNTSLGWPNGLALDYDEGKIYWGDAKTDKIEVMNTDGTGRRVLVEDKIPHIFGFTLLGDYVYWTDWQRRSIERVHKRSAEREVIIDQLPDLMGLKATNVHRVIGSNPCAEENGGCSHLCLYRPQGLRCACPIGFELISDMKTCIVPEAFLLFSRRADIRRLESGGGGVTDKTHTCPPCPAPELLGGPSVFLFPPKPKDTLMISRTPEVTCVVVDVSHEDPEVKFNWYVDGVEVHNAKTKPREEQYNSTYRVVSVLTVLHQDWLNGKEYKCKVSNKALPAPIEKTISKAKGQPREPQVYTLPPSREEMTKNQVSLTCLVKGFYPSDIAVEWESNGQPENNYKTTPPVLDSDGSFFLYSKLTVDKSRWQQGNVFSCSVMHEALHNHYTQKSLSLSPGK
In assay [4] the target is T1, LRP6 (human; form used in the assay not …). Description: Scatchard analysis; format not stated; Scatchard analysis.
For assay [5], the target named is LRP6 on HEK293 cells (human, UniProt O75581 20-1613). Nature of the assay: cell-based or functional assay.
The target in assay [6] is T3, LRP6.E1-E2 fragment (biotinylated, His-tagged) (Homo sapiens (Human), UniProt O75581 19-644, biotinylated (AviTag system)).
T3 construct: BLI antigen from baculovirus-infected insect cells; also called LRP6 E1-E2 protein fragment; not shown: His tag and AviTag
T3 sequence: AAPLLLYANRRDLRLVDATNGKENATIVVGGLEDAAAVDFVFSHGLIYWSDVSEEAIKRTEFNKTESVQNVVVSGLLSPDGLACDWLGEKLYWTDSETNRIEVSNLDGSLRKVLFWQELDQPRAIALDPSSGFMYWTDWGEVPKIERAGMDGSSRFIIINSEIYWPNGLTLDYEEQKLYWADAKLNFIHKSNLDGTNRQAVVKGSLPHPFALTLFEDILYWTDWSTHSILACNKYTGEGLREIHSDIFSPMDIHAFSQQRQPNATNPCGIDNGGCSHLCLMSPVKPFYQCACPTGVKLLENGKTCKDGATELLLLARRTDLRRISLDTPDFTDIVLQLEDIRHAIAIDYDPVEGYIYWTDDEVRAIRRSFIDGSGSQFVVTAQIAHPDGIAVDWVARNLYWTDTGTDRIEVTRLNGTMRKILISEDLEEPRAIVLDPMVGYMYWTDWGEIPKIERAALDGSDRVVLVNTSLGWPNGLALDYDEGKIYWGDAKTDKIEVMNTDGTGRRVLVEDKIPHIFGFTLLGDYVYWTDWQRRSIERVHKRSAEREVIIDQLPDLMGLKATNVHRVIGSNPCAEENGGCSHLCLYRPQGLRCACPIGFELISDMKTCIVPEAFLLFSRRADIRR
Nature of the assay: biolayer interferometry, immobilized LRP6 E1-E2 fragment; Wnt9b at 200 nM; association then dissociation phase. As to the method: Biolayer interferometry was performed as previously described (Bourhis et al., 2010). Briefly, biotinylated, His-tagged LRP6 proteins were purified from baculovirus-infected insect cells using the AviTag system (GeneCopoeia). Binding kinetics were measured on the Octet RED System (ForteBio) using Streptavidin High Binding FA Biosensors loaded with 20 μg/ml LRP6 protein.
In these assays, antibody binding to LRP6 protein was allowed to reach equilibrium, and the subsequent wavelength shift in the interference pattern is shown for association and dissociation phases of Wnt protein binding.

Values joined by “and” are separate entries in the source; they are usually repeats but may differ in a detail not shown here. Identical values can stand only once.

B1: YW211.31 antibody (antibody, human IgG1, kappa, V domains shown)
VH: EVQLVESGGGLVQPGGSLRLSCAASGFTFTSYYISWVRQAPGKGLEWVAEISPYSGSTYYADSVKGRFTISADTSKNTAYLQMNSLRAEDTAVYYCALRARPPIRLHPRGSVMDYWGQGTLVTVSS
VL: DIQMTQSPSSLSASVGDRVTITCRASQDVSTAVAWYQQKPGKAPKLLIYSASFLYSGVPSRFSGSGSGTDFTLTISSLQPEDFATYYCQQSYTTPPTFGQGTKVEIKR
notes: also called intact YW211.31 antibody
As a reminder, the Kd is the concentration at which binding is half-saturated. In the case of B1, the Kd is roughly 2 nM in assay [1] and roughly 0.6 nM in assay [4]. For the same molecule, the binding result in assay [2] was “binds”; in assay [3] it was “no binding”. The “IC50, inhibition of signaling (Wnt luciferase reporter) in Wnt3a-stimulated HEK293 cells” value in assay [5] is ~1 ug/ml and ~6 nM.

B2: Wnt9b (ligand, mouse, UniProt O35468 24-359, looked up)
chain: AAYFGLTGREVLTPFPGLGTAAAPAQAGAHLKQCDLLKLSRRQKQLCRREPGLAETLRDAAHLGLLECQFQFRQERWNCSLEGRTGLLQRGFKETAFLYAVSAAALTHALARACSAGRMERCTCDDSPGLESRQAWQWGVCGDNLKYSTKFLSNFLGPKRGSKDLRARADAHNTHVGIKAVKSGLRTTCKCHGVSGSCAVRTCWKQLSPFRETGQVLKLRYDTAVKVSSATNEALGRLELWAPAKPGGPAKGLAPRPGDLVYMEDSPSFCRPSKYSPGTAGRVCSRDSSCSSLCCGRGYDTQSRMVVFSCHCQVQWCCYVECQQCAQQELVYTCKR
notes: also called purified mouse Wnt9b
B2: in assay [6], the binding result is on record as “binds”.

(Values after patent US20110256127A1 (Genentech, published 2011).)
